Assay results as given in patent US20220056142A1 (Sanofi, published 2022).

T1: mouse FGFR3 (mouse, UniProt Q61851 21-369)
T1 construct: extracellular domain; also called mFGFR3
T1 sequence (looked up): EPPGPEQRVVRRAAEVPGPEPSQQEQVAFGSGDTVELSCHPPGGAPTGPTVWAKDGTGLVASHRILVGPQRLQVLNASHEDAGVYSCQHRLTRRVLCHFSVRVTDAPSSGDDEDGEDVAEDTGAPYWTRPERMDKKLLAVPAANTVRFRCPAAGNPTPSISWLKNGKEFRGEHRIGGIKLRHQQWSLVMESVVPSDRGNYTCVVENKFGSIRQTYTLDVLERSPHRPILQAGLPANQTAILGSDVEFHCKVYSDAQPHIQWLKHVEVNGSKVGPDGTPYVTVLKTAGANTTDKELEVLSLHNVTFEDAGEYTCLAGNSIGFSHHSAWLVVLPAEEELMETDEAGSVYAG

T2: human FGFR3 (human, UniProt P22607 23-375)
T2 construct: also called hFGFR3
T2 sequence: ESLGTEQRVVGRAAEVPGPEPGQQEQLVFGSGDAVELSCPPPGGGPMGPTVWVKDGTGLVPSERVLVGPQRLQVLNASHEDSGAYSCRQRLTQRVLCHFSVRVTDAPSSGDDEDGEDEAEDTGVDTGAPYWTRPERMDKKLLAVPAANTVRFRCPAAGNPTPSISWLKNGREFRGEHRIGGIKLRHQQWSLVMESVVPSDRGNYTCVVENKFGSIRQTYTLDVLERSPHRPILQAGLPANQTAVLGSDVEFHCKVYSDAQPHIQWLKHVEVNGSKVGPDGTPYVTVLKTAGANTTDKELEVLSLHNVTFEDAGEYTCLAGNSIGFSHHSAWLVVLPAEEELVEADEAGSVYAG

T3: N-terminal ECD protein of mouse FGFR3 with a terminal avidin tag (mouse, UniProt Q61851 21-369)
T3 construct: extracellular domain; not shown: terminal avidin tag
T3 sequence (looked up): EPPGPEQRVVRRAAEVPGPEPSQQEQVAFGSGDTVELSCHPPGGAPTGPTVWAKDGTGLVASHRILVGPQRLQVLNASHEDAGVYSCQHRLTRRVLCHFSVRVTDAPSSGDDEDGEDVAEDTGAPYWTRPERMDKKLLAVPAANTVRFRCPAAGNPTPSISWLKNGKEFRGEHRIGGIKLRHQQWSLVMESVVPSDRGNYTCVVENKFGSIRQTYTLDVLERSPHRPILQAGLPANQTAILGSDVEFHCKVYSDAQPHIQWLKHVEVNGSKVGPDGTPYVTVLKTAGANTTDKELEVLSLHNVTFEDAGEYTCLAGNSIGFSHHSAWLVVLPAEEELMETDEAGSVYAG

T4: cynomolgus FGFR3 (cynomolgus)
T4 construct: also called cynoFGFR3
T4 chain: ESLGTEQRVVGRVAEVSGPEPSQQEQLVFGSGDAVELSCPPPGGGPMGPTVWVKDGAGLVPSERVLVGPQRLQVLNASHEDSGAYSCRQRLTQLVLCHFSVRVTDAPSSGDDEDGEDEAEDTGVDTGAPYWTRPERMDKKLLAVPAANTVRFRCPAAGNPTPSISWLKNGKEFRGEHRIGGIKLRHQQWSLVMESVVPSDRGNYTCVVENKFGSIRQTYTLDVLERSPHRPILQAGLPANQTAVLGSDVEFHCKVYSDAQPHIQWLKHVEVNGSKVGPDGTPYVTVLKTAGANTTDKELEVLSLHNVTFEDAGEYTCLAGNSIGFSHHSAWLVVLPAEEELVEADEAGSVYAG

T5: human FGFR3 isoform IIIc (human, UniProt P22607 23-375, limits assumed)
T5 construct: also called hFGFR3IIIc; FGFR3 IIIc
T5 sequence: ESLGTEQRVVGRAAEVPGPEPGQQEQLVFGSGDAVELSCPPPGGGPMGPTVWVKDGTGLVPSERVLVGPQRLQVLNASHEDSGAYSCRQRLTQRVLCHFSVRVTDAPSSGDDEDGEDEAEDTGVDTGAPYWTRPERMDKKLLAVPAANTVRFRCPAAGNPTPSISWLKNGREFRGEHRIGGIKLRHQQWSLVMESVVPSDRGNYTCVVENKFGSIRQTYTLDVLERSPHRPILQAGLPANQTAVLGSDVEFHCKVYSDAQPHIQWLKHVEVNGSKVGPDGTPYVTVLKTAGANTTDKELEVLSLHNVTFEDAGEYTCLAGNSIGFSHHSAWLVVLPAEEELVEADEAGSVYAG

T6: human FGFR3 isoform IIIb (human, UniProt P22607-2 23-377)
T6 construct: Isoform IIIb differs from the canonical IIIc entry in the D3 domain; also called hFGFR3IIIb; FGFR3 IIIb
T6 sequence (looked up): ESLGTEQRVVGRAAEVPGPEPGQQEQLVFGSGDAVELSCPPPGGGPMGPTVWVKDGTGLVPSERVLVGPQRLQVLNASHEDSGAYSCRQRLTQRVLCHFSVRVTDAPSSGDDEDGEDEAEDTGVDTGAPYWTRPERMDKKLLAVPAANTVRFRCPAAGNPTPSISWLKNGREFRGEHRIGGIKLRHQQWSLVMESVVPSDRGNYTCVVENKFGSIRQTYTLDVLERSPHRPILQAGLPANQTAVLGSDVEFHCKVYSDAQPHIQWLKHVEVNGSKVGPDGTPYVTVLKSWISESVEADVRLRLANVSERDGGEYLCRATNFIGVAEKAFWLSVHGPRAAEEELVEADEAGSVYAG


Tests used:
mouse FGFR3 = molecular target: T1, mouse FGFR3; assay: affinity table; method not restated (Biacore SPR per Example 1)
human FGFR3 = molecular target: T2, human FGFR3; assay: as above
[1] = molecular target: T3, N-terminal ECD protein of mouse FGFR3 …; assay: SPR (Biacore), FGFR3 ECD immobilised on chip, antibody injected, 1:1 fit
Description: The N-terminal ECD proteins of FGFR3 from human and mouse were produced with a terminal avidin tag and used in a forward format Biacore assay where proteins were immobilized on a Biacore chip and then the kinetics of antibody interaction with the proteins on the chip were determined. The proteins were immobilized on a Biacore chip for approximately 10,000 response units (RU). Then the antibodies were exposed to the chip for kinetic measurements, following the manufacturer's recommendations (GE Healthcare). Sensorgrams were fit to a 1:1 binding model and analyzed using double-reference subtraction by T200 Evaluation software (GE Healthcare).

cynomolgus FGFR3 = molecular target: T4, cynomolgus FGFR3; assay: reactivity grade (Table 2); method not given
human FGFR3 isoform IIIc = molecular target: T5, human FGFR3 isoform IIIc; assay: reactivity grade (Table 2); method not given
human FGFR3 isoform IIIb = molecular target: T6, human FGFR3 isoform IIIb; assay: reactivity grade (Table 2); method not given

Binder | Kd (mouse FGFR3) | Kd (human FGFR3) | Kd [1] | koff [1] | kon [1] | binding result (cynomolgus FGFR3) | binding result (human FGFR3 isoform IIIc) | binding result (human FGFR3 isoform IIIb)
KC18_Hu28 (antibody, human IgG1, kappa, V domains shown) VH: QVQLVQSGAEVVKPGASVKLSCKASGDTFTDFEIHWVKQAPGQGLEWIGDIDPETGGTAYNQKFQGRATLTADRSSSTAYMELSRLRSDDTAVYYCTRTYDGYPYAMDYWGQGTTVTVSS VL: DIVMTQSPSSLAVSLGERVTMNCKSSQSLLYSNNQKNYLAWYQQKPGQSPKLLIYWASTRESGVPDRFSGSGSGTDFTLTISSVQAEDVAVYYCQQYYSYRTFGGGTKLEIKR | 5.41 nM | 4.46 nM |  |  |  |  |  | 
KC18_Hu34 (antibody, human IgG1, kappa, V domains shown) VH: QVQLVQSGAEVVKPGASVKLSCKASGDTFTDFEIHWVKQAPGQGLEWIGDIDPETGGTAYNQKFQGRATLTADRSSSTAYMELSRLRSDDTAVYYCTRTYDGYPYAMDYWGQGTTVTVSS VL: DIVMTQSPLSLAVTVGEKVSISCRSSQSLLYSNNQKNYLAWYQQKPGQSPKLLIYWGSTRESGVPDRFSGSGSGTDFTLTISRVEAEDVGVYYCQQYYSYRTFGGGTKLEIKR | 8.14 nM | 6.85 nM |  |  |  |  |  | 
KC18_Hu16 (antibody, human IgG1, kappa, V domains shown) VH: EVQLVQSGAEVKKPGATVKLSCKASGDTFTDFEIHWVQQAPGKGLEWIGDVDPETGGTAYAEKFQGRATLTADRSTDTAYMELSSLRSEDTAVYYCTRTYDGYPYAMDYWGQGTLVTVSS VL: not shown | 4.23 nM | 3.76 nM |  |  |  |  |  | 
KC18_Hu19 (antibody, human IgG1, kappa, V domains shown) VH: QVQLVQSGAEVVKPGATVKISCKASGDTFTDFEIHWVQQAPGKGLEWIGDIDPETGGTAYNEKFQGRATLTADRSTSTAYMELSSLRSEDTAVYYCARTYDGYPYAMDYWGQGTTVTVSS VL: not shown | 3.78 nM | 2.99 nM |  |  |  |  |  | 
KC18_Hu27 (antibody, human IgG1, kappa, V domains shown) VH: QVQLVQSGAEVVKPGATVKLSCKASGDTFTDFEIHWVKQAPGKGLEWIGDIDPETGGTAYNEKFQGRATLTADRSTSTAYMELSSLRSEDTAVYYCTRTYDGYPYAMDYWGQGTTVTVSS VL: DIVMTQSPSSLAVSLGERVTMNCKSSQSLLYSNNQKNYLAWYQQKPGQSPKLLIYWASTRESGVPDRFSGSGSGTDFTLTISSVQAEDVAVYYCQQYYSYRTFGGGTKLEIKR | 4.6 nM | 3.9 nM |  |  |  |  |  | 
KC18_Hu23 (antibody, human IgG1, kappa, V domains shown) VH: QVQLVQSGAEVVKPGATVKISCKASGDTFTDFEIHWVQQAPGKGLEWIGDIDPETGGTAYNEKFQGRATLTADRSTSTAYMELSSLRSEDTAVYYCARTYDGYPYAMDYWGQGTTVTVSS VL: not shown | 3.35 nM | 2.68 nM |  |  |  |  |  | 
KC18_Hu13 (antibody, human IgG1, kappa, V domains shown) VH: QVQLVQSGAEVKKPGASVKVSCKASGDTFTDFEIHWVRQAPGQGLEWIGDIDPETGSTSYAQKFQGRATLTADRSTSTAYMELSSLRSEDTAVYYCTRTYDGYPYAMDYWGQGTLVTVSS VL: not shown | 5.28 nM | 4.52 nM |  |  |  |  |  | 
KC18_Hu18 (antibody, human IgG1, kappa, V domains shown) VH: EVQLVQSGAEVKKPGATVKLSCKASGDTFTDFEIHWVQQAPGKGLEWIGDVDPETGGTAYAEKFQGRATLTADRSTDTAYMELSSLRSEDTAVYYCTRTYDGYPYAFDYWGQGTLVTVSS VL: not shown | 1.42 nM | 1.25 nM |  |  |  |  |  | 
KC18_Hu12 (antibody, human IgG1, kappa, V domains shown) VH: EVQLVQSGAEVKKPGATVKLSCKASGDTFTDFEIHWVQQAPGKGLEWIGDVDPETGGTAYAEKFQGRATLTADRSTDTAYMELSSLRSEDTAVYYCTRTYDGYPYAFDYWGQGTLVTVSS VL: not shown | 1.73 nM | 1.61 nM |  |  |  |  |  | 
KC18_Hu7 (antibody, human IgG1, kappa, V domains shown) VH: QVQLVQSGAEVKKPGASVKVSCKASGDTFTDFEIHWVRQAPGQGLEWIGDIDPETGSTSYAQKFQGRATLTADRSTSTAYMELSSLRSEDTAVYYCTRTYDGYPYAMDYWGQGTLVTVSS VL: not shown | 6.36 nM | 5.41 nM |  |  |  |  |  | 
KC18_Hu10 (antibody, human IgG1, kappa, V domains shown) VH: EVQLVQSGAEVKKPGATVKLSCKASGDTFTDFEIHWVQQAPGKGLEWIGDVDPETGGTAYAEKFQGRATLTADRSTDTAYMELSSLRSEDTAVYYCTRTYDGYPYAMDYWGQGTLVTVSS VL: not shown | 5.15 nM | 4.73 nM |  |  |  |  |  | 
KE58 (antibody, V domains shown, Mouse monoclonal antibody from a hybridoma; also called anti-FGFR3 antibody KE58) VH: EVQLQQSGPDLVKPGASVKISCKASGYTVTDYYMNWVKQSHGKSLEWIGDINPNNGVTTYNQKFKDKATLTVDKSSSTAYMELRSLTSEDSAVYYCAREEDFDGFDYWGQGTTLTVSS VL: DIVMTQSHKFMSTSVGDRVSITCKASQDVSTGVAWYQQKPGQSPQLLIYWASTRHTGVPDRFTGSGSGTDYILTIRSVQAEDLALYYCQQHYSTPLTFGAGTKLELK |  |  | 5.5 nM | 0.000918 s⁻¹ | 167000 M⁻¹ s⁻¹ | binds | binds | binds
KE35 (antibody, V domains shown, Mouse monoclonal antibody from a hybridoma; also called anti-FGFR3 antibody KE35) VH: EVQLQQSGPELVKPGASVKMSCKASGYTFTDYNMHWVKQSHGKSLEWIGYINPNNGGTRYNQKFKGKATLTVNKSSSTAYMELRSLTSEDSAVYYCARERDYDGAMDYWGQGTSVTVSS VL: DIQMTQSPSSLSASLGGKVTITCKASQDINKFIAWYQHKPGKGPRLLIHYTSTLQPGIPSRFSGSGSGRDYSFSISNLEPEDIATYYCLQYDNLLWTFGGGTKLEIK |  |  | 1.89 nM | 0.00108 s⁻¹ | 571000 M⁻¹ s⁻¹ | binds | binds | binds
KE42 (antibody, V domains shown, Mouse monoclonal antibody from a hybridoma; also called anti-FGFR3 antibody KE42) VH: EVQLQQSGPELVKPGASVKMSCKASGYTFTDYNMHWVKQSHGKSLQWIGYINPNNGGTNYNQNFKDKATLTVNKSSTTAYMELRSLTSEDSAVYYCARERDYDGSMDFWGQGTSVTVSS VL: DIQMTQSPSSLSASLGGKVTITCKASQDINKFIAWYQHKPGKGPRLLIHYTSTLQPGIPSRFSGSGSGRDYSFSISNLEPEDIATYFCLQYDNLLWTFGGGTKLEIK |  |  | 0.81 nM | 0.0006 s⁻¹ | 739000 M⁻¹ s⁻¹ | binds | binds | binds
KC18 (antibody, V domains shown, Mouse hybridoma antibody; also called parental KC18 antibody) VH: QVQLQQSGAELVRPGASVTLSCKASGDTFTDFEIHWVKQTPVHGLEWIGDIDPETGGTAYNQKFRGRAMLTADRSSSTAYMELRSLTSEDSAVYYCTRTYDGYPYAMDYWGQGTSVTVSS VL: DIVMSQSPSSLAVSVGEKVTMSCKSSQSLLYSNNQKNYLAWYQQKPGQSPKLLIYWASTRESGVPDRFTGSGSGTDFTLTISSVKAEDLAVYYCQQYYSYRTFGGGTKLEIK | 3.78 nM | 2.73 nM |  |  |  |  |  | 
